Experiments:
human fibrinogen, P02671 = biological target: T1, human fibrinogen, P02671
T1 chain 1: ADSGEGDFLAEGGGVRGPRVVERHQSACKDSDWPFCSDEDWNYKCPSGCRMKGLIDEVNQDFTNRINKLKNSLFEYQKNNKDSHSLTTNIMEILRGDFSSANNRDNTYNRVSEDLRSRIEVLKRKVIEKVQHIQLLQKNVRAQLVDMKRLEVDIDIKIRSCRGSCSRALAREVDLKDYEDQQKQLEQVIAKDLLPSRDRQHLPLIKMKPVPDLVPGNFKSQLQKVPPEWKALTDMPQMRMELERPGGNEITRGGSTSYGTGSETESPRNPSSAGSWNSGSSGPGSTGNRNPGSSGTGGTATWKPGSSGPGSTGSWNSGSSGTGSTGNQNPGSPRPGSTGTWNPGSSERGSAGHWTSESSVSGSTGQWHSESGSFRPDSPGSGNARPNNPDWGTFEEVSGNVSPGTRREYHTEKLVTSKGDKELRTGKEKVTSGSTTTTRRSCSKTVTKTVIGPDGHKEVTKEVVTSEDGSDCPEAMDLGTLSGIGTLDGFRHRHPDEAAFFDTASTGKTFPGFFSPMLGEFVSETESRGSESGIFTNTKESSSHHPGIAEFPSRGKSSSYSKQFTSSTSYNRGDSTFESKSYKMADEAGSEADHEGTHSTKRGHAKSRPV
T1 chain 2: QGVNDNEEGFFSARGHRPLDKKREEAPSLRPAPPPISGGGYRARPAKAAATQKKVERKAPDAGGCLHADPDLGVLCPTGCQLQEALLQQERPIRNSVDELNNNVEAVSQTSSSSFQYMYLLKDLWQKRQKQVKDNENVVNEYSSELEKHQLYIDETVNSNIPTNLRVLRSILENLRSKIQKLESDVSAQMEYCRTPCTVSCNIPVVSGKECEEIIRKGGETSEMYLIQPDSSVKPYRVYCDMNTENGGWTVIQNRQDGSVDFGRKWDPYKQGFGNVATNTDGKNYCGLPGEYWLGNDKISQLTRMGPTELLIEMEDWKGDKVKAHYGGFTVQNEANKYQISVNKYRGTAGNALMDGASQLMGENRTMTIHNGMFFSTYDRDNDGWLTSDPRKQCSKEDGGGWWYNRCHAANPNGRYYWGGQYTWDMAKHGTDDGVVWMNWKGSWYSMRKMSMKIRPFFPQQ
T1 chain 3: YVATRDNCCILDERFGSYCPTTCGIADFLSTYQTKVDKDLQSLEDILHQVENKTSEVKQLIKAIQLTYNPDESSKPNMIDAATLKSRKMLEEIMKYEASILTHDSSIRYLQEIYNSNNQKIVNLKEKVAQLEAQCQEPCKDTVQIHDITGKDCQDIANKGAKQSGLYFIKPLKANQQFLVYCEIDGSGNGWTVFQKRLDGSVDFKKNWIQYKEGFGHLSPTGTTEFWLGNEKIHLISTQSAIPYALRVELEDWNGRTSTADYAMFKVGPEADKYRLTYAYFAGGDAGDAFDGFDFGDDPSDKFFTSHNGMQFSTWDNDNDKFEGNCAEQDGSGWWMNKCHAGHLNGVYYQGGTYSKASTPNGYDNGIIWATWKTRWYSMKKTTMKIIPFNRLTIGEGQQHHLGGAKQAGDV

[1] = biological target: T2, bovine fibrinogen (Sigma Company), P02672
T2 chain 1: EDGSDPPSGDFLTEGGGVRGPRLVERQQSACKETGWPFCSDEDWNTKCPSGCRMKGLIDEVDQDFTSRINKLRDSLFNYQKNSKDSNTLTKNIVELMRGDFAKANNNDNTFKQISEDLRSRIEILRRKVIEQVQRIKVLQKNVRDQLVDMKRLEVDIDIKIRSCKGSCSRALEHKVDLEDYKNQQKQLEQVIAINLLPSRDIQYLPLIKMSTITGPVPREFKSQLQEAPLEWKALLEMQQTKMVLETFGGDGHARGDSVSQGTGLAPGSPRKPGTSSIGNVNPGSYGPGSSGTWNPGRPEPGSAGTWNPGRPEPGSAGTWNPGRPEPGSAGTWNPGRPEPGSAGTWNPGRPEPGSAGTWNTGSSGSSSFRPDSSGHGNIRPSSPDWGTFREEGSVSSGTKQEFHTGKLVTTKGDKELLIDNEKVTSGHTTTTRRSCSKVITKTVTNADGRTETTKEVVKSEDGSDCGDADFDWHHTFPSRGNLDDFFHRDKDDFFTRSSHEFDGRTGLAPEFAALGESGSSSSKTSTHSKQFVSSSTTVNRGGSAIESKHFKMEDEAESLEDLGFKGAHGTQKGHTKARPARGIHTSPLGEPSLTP
T2 chain 2: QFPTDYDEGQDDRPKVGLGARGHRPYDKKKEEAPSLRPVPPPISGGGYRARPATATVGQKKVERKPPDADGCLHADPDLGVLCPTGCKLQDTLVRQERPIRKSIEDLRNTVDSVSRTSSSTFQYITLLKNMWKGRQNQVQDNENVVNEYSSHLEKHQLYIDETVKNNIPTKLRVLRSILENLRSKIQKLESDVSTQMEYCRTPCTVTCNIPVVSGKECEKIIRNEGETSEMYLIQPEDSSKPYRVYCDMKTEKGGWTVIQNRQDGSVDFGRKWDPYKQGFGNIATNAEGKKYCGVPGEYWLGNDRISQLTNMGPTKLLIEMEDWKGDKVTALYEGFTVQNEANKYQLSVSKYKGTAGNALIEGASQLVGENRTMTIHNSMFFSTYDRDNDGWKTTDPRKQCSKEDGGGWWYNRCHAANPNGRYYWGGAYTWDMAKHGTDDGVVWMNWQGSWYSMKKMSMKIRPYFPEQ
T2 chain 3: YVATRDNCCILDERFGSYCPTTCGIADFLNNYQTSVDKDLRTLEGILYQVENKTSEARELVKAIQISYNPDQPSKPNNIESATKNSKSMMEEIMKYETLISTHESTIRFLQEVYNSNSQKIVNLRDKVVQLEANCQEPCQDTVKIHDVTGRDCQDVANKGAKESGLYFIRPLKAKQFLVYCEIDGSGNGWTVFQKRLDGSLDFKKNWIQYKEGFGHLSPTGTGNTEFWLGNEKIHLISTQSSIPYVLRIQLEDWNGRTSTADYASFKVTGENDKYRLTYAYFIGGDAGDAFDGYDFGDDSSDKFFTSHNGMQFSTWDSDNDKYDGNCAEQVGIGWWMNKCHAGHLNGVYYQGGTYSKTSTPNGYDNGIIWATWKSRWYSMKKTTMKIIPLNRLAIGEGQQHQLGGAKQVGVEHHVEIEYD

B1: hemocoagulase of Agkistrodon acutus (protein)
chain 1: DCSSGWSSYEGHCYKVFKQSKTWADAESFCTKQVNGGHLVSLESSGEADFVGQLLAQKLKSAKLHVWLGLRAQNKEKQCSLQWSDGSSLSYENWLEEESKKCLGVHLETGFHKWENFYCEQQDPFVCEA
chain 2: DCPSDWSSYEGHCYKPFNEPKNWADAENFCTKQHTGGHLVSFQSTEEADFVVKLAFQTFDYGLFWFGLSKLWNQCNWQWSNAAMLKYTDWAEESYCVYFKSTNNKWRSLTCRMLANFVCEFQA
hydrolysis of human fibrinogen, SDS-PAGE after 0.5 h, 1 h, 2 h and 4 h at 37° C. (human fibrinogen, P02671): After the fibrinogen was treated with the hemocoagulase (1 unit) for 0.5 h and 1 h, the band of alpha subunit became gradually light, and after being treated for 2 h and 4 h, the band of alpha subunit disappeared completely
Agglutination time (tube 1#, 10 µl distilled water added) [1]: 50 s
Agglutination time (tube 2#, 10 µl isopropanol added) [1]: 50 s
Agglutination time (tube 3#, 10 µl PMSF added) [1]: more than 600 seconds

Reference: patent publication US20110263000
